Laboratory results from PMC12098869, “An mRNA-display derived cyclic peptide scaffold reveals the substrate binding interactions of an N-terminal cysteine oxidase” (Nature Communications, 2025).
Substitutions are numbered along the chain they refer to. Several values for one entry are separate records, joined by “and”; a condition that tells them apart may be missing. Equal values may be shown once.

Key:
Conditions in all cases: both partners purified
[1] = target: T1, ADO-Y212F, biotinylated (pQE80L-Navi-ADO) (human, UniProt Q96SZ5 1-270, Y212F, biotin on the Avi tag); experiment: SPR; multi-cycle, equilibrium steady state affinity 1:1 binding model; biotinylated ADO or variant immobilised on a Biotin CAP chip (~2500-3000 RU), peptide injected; 4 °C; 20 mM HEPES pH 7.5, 500 mM NaCl, 10 mM DTT, 0.1% (v/v) tween-20; 50 μL/minute
T1 construct: Tag as in Dm1; source: E. coli Rosetta2(DE3), purified (Ni-NTA, SEC); not shown: Avi tag, N-terminal, kept; His6, N-terminal, kept
T1 sequence (looked up): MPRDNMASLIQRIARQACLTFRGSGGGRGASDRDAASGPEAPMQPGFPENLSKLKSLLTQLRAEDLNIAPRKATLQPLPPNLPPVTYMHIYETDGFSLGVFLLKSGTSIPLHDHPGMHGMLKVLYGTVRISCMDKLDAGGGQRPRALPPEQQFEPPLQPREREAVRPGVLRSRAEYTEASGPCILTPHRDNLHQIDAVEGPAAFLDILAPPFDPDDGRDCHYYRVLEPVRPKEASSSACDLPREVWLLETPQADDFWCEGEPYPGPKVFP
In short: (§1)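 Biotinylated full-length human ADO (wild type or engineered forms) was made in E. coli with a His tag, then purified by nickel affinity and gel filtration. It was captured on a Biotin CAP chip at about 2500–3000 RU in a Biacore T200, and peptides were flowed over it. The run was at 4 °C in HEPES pH 7.5 buffer with 500 mM NaCl, DTT and tween-20, at 50 μL/minute. Kd came from a 1:1 steady-state fit of multi-cycle equilibrium responses.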

[2] = target: T2, ADO-Y87A, biotinylated (pQE80L-Navi-ADO) (human, UniProt Q96SZ5 1-270, Y87A, biotin on the Avi tag); experiment: as above
T2 construct: Tag as in Dm1; source: E. coli Rosetta2(DE3), purified (Ni-NTA, SEC); not shown: Avi tag, N-terminal, kept; His6, N-terminal, kept
T2 sequence (looked up): T1 sequence (looked up) with Y87A, F212Y
In short: as §1

[3] = target: T3, ADO-Y87F, biotinylated (pQE80L-Navi-ADO) (human, UniProt Q96SZ5 1-270, Y87F, biotin on the Avi tag); experiment: as above
T3 construct: Tag as in Dm1; source: E. coli Rosetta2(DE3), purified (Ni-NTA, SEC); not shown: Avi tag, N-terminal, kept; His6, N-terminal, kept
T3 sequence (looked up): T1 sequence (looked up) with Y87F, F212Y
In short: as §1

[4] = target: T4, ADO-Y87F, N-terminally His-tagged and biotinylated (human, UniProt Q96SZ5 1-270, Y87F, biotin (biotinylated during expression)); experiment: SPR; biotinylated ADO or ADO mutant immobilised on a Biotin CAP chip (~2500-3000 RU), substrate peptide injected; Biacore T200, 4 °C; 20 mM HEPES pH 7.5, 500 mM NaCl, 10 mM DTT, 0.1% tween-20; 50 µL/minute; multi-cycle or single-cycle mode not given; each cell is one of three independent measurements
T4 construct: 2-aminoethanethiol dioxygenase (ADO), human, UniProt Q96SZ5, full length, site-directed mutant; source: E. coli Rosetta2(DE3), purified (Ni-NTA, SEC); not shown: biotinylation tag (from the vector pQE80L-Navi), N-terminal, kept
T4 sequence (looked up): T1 sequence (looked up) with Y87F, F212Y

[5] = target: T5, ADO-D206E, N-terminally His-tagged and biotinylated (human, UniProt Q96SZ5 1-270, D206E, biotin (biotinylated during expression)); experiment: as above
T5 construct: 2-aminoethanethiol dioxygenase (ADO), human, UniProt Q96SZ5, full length, site-directed mutant; source: E. coli Rosetta2(DE3), purified (Ni-NTA, SEC); not shown: biotinylation tag (from the vector pQE80L-Navi), N-terminal, kept
T5 sequence (looked up): T1 sequence (looked up) with D206E, F212Y

B1: RGS5_(2-15), synthetic peptide corresponding to the methionine excised N-terminus of RGS5, residues 2 to 15 (peptide, UniProt O15539 2-15, looked up)
peptide: CKGLAALPHSCLER
notes: Regulator of G-protein signalling 5 (RGS5), residues 2 to 15, N-terminal Cys; also called RGS5 peptide; source: synthetic peptide
With B1 the Kd [1] was 24000 nM, the Kd [2] was 1700 nM and the Kd [3] was 340 nM.

B2: IL32_(2-15), synthetic peptide corresponding to the methionine excised N-terminus of IL32, residues 2-15 (peptide, UniProt P24001 2-15, looked up)
peptide: CFPKVLSDDMKKLK
notes: Interleukin 32 (IL32), residues 2-15, N-terminal Cys; also called IL32 peptide; source: synthetic peptide
In the case of B2, the Kd [1] is reported as 9200 nM, the Kd [2] is reported as 4200 nM and the Kd [3] is reported as 320 nM.

B3: RGS5(2-15), synthetic peptide corresponding to the methionine excised N-terminus of RGS5, residues 2 to 15 (peptide, UniProt O15539 2-15, looked up)
peptide: CKGLAALPHSCLER
notes: regulator of G-protein signalling 5 (RGS5), residues 2 to 15 (N-terminal Cys exposed); UniProt O15539 is printed for the full-length human protein; also called 14-mer RGS5; source: synthetic peptide
With B3 the Kd [4] was 339 nM (2×) and 336 nM and the Kd [5] was 1190 nM and 997 nM and 1060 nM.
